In article doi:10.1101/491043:

Target: M. tuberculosis ClpX (M. tuberculosis) (UniProt P9WPB9)
Assay: SPR

| Substance | Kd [nM] | fold reduction in binding against σ^D/RsdA [fold] |
| --- | --- | --- |
| σ^D/RsdA complex (from UniProt P9WGG8;H8EZ77) | 14.5 |  |
| σ^K/RskA complex (from UniProt A5TZH1;A5TZH0) | 164 |  |
| σ^L/RslA complex (from UniProt H8EXN1;H8EXN2) |  | 10 |
| σ^M/RsmA complex | 133 |  |
